This is an account of results in patent US20070048219A1 (Genentech, published 2007).

Positions count from the first letter of the chain named. In names and notes the source's numbering stands. Several values for one entry are separate records, joined by “and”; a condition that tells them apart may be missing. Identical values can stand only once.

The Kd is the equilibrium constant for the complex coming apart. A word on the IC50: it is the concentration that inhibits the measured activity by half.

For one assay, the target named is T1, MGSA (UniProt P09341 35-107).
T1 sequence (looked up): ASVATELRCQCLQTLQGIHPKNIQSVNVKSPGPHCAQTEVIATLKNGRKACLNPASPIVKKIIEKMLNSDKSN
In words: ELISA, cytokines coated onto plates.

The next assay has as its target TNF (UniProt P01375 77-233, limits assumed). In words: ELISA, cytokines coated onto plates.
A further assay has as its target T2, β-TG (UniProt P02775 48-128).
T2 construct: also called b-TG
T2 sequence (looked up): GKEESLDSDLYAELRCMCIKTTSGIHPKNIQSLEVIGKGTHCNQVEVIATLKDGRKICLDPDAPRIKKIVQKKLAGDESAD
In words: ELISA, cytokines coated onto plates. (In general: In an ELISA, binding on a coated surface is turned into a signal by an enzyme label.)

The target in another assay is T3, PF4 (UniProt P02776 32-101).
T3 construct: also called platelet factor 4
T3 sequence (looked up): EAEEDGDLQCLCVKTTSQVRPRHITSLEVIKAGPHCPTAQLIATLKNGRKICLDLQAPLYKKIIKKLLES
In words: ELISA, cytokines coated onto plates.

For a further assay, the target named is T4, C5a (UniProt P01031 678-751).
T4 sequence (looked up): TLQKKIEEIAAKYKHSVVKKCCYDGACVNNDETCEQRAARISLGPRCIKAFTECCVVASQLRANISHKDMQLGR
Nature of the assay: ELISA, cytokines coated onto plates.

In assay [1] the target is T5, recombinant human IL-8, (ser-IL-8)72 (human, UniProt P10145 28-99, 125I label on tyrosine in the tracer form; the letters do not carry it).
T5 construct: also called human wild type IL-8; HuIL-8
T5 sequence: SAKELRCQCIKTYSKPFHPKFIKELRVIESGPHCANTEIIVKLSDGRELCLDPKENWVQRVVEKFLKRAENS
In words: KinExA equilibrium constant; column head Kd. The method, then:
(§1) The beads were resuspended in assay buffer (0.1% bovine serum albumin in PBS) to a final volume of 30 ml.
(§2) The equilibrium constant (Kd) was calculated using the software provided by Sapidyne Instruments Inc.
In general terms: Kinetic exclusion samples the free partner from a solution-phase mixture.

For assay [2], the target named is T5, recombinant human IL-8, (ser-IL-8)72. Nature of the assay: competition: inhibition of 125I-IL-8 binding to human neutrophils.
The target is the same in assay [3]. Nature of the assay: competition binding: the antibody is varied (Cold Ligand, nM) and blocks 125I-IL-8 binding to IL-8 receptors on human neutrophils. Here is the method:
(§3) The periplasmic fraction was collected and passed over a Hi-Trap Protein-G column (Pharmacia, Piscataway, N.J.) followed by a desalting and concentration step. The protein was analyzed by SDS-PAGE, mass spectrometry and amino acid analysis.

Another assay has as its target T6, rhesus IL-8 (rhesus, UniProt P67813 23-101, limits assumed).
T6 sequence (looked up): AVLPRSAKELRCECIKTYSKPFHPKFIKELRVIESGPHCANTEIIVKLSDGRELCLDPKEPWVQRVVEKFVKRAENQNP
In words: cell-based or functional assay.

The target in a further assay is human monomeric IL-8 (human). In words: cell-based or functional assay.
In assay [4] the target is T5, recombinant human IL-8, (ser-IL-8)72. In words: competition binding: the Fab is varied (Cold Ligand, nM) and blocks 125I-IL-8 binding to IL-8 receptors on human neutrophils. The method, then:
as §3

Assay [5] has the same target. In words: competition phage ELISA on plate-bound K64C IL-8. Here is the method:
The first step of the assay requires that the concentrations of the phage carrying the wild type and mutated antibodies be normalized, allowing a comparison of the relative affinities of each antibody. […] The plates were washed once more and stored covered at 4° C. with 200 ul of PBS/well. […] The phage were resuspended in 500 ul […] Tris-HCl pH 7.5, 1 mM EDTA and […] NaCl and held at 4° C. for no longer than 3 hours. […] The phage were next serially diluted in 3 fold steps down the plate from well A through H. The plates were incubated for I hour at 25° C. followed by nine quick washes with PBS containing 0.05% Tween-20 (PBST).

For assay [6] the target is unchanged. Nature of the assay: cell-based or functional assay.
Another assay concerns the target T7, rabbit IL-8 (rabbit, UniProt P19874 23-101, limits assumed).
T7 sequence (looked up): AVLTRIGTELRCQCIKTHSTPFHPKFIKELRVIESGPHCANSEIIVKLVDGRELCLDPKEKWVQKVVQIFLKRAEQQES
Nature of the assay: cell-based or functional assay.

Assay [7] deals with T5, recombinant human IL-8, (ser-IL-8)72. In words: KinExA, IL-8-coated beads, solution equilibrium. The method, then:
as §1, §2

For assay [8] the target is unchanged. In words: competition: inhibition of IL-8 binding to human neutrophils (experiment of FIG. 54B); Fab control of FIG. 54B.
Assay [9] shares this target. In words: competition binding: the Fab is varied (Cold Ligand, nM) and blocks 125I-IL-8 binding to IL-8 receptors on human neutrophils. The text has this:
The displacement curves from a representative binding experiment performed in duplicate is depicted in FIG. 38.
This is another data set of the same source.

Assay [10] shares this target. In words: competition binding: the Fab inhibits binding of 125I-IL-8 to human neutrophils; Bound/Total against antibody competitor (nM).
For assay [11] the target is unchanged. The description is as above. This is another data set of the same source.
Assay [12] shares this target. Nature of the assay: competition: inhibition of iodinated IL-8 binding to human neutrophils.
Assay [13] has the same target. Nature of the assay: KinExA, IL-8-coated beads. Here is the method:
as §1, §2

For assay [14] the target is unchanged. In words: competition binding: the antibody inhibits binding of 125I-IL-8 to human neutrophils; Bound/Total against cold ligand (nM). Here is the method: Neutrophils were prepared by using Mono-Poly Resolving Medium (M-PRM) (Flow Lab. Inc., McLean. Va.). Briefly fresh, heparinized human blood was loaded onto M-PRM at a ratio of blood to medium, 3.5:3.0, and centrifuged at 300×g for 30 min at room tem perature. Neutrophils enriched at the middle layer were collected and washed once in PBS. […] The receptor binding assay was done as follows. […] The supernatant was removed by aspiration and the radioactivity associated with the pellet was counted in a gamma counter.

For assay [15] the target is unchanged. Nature of the assay: competitive RIP with unlabeled IL-8, Scatchard analysis.

Sequence of TNF (P01375 77-233 limits assumed): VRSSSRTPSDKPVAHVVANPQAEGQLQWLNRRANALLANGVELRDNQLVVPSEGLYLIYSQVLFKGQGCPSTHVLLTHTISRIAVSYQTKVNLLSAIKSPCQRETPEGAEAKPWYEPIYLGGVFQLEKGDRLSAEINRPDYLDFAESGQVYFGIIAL

B1: murine anti-rabbit IL-8 monoclonal antibody 6G4.2.5 (antibody, mouse IgG2a, V domains shown)
VH: EIQLQQSGPELMKPGASVKISCKASGYSFSSHYMHWVKQSHGKSLEWIGYIDPSNGETTYNQKFKGKATLTVDTSSSTANVHLSSLTSDDSAVYFCARGDYRYNGDWFFDVWGAGTTVTVSS
VL: DIVMTQTPLSLPVSLGDQASISCRSSQSLVHGIGNTYLHWYLQKPGQSPKLLIYKVSNRFSGVPDRFSGSGSGTDFTLRISRVEAEDLGLYFCSQSTHVPLTFGAGTKLELK
notes: full length murine IgG2a from hybridoma ATCC HB 11722; also called 6G4 murine mAb; intact murine 6G4.2.5 antibody
Take B1: the binding result with MGSA, with TNF, with β-TG, in the assay with PF4 and with C5a was “no binding” throughout. Besides, the dissociation constant Kd in assay [1] amounted to 0.35 nM. In addition, the IC50 in assay [2] stood at 5 nM. Further, the “IC50 (read off the curve)” value in assay [3] is about 7 nM.

B2: humanized 6G425 F(ab)-9 (humanized 6G4V11 Fab) (Fab, V domains shown)
VH: EVQLVQSGGGLVQPGGSLRLSCAASGYSFSSHYMHWVRQAPGKGLEWVGYIDPSNGETTYNQKFKGRFTLSRDNSKNTAYLQMNSLRAEDTAVYYCARGDYRYNGDWFFDVWGQGTLVTVSS
VL: DIQMTQSPSSLSASVGDRVTITCRSSQSLVHGIGNTYLHWYQQKPGKAPKLLIYKVSNRFSGVPSRFSGSGSGTDFTLTISSLQPEDFATYYCSQSTHVPLTFGQGTKVEIKR
notes: F(ab)-6 with murine Gln for Glu at H6; also called version 11; 6G4.2.5V11
On to B2, for which the “IC50, inhibition of IL-8 mediated neutrophil chemotaxis” value with rhesus IL-8 was about 22 nM; with human monomeric IL-8 it was about 15 nM. For the same molecule, in assay [4], the “IC50 (read off the curve)” value is about 6 nM.

B3: h6G4V11 Y37A (CDR-L1), phage-displayed (Fab, V domains shown)
VH: B2 VH
VL: B2 VL with Y37A
notes: alanine-scan mutant of m36
On to B3, for which the binding result in assay [5] is given as “no binding”.

B4: 6G4V11N35A Fab (Fab, V domains shown)
VH: B2 VH
VL: B2 VL with N35A
notes: also called 6G4.2.5V11N35A Fab; Fab control
For the molecule B4, the “IC50, blocking IL-8 mediated chemotaxis” value in [6] is 0.8 nM. Moreover, in [6], the “average IC50, inhibition of human IL-8 mediated neutrophil chemotaxis” value was found to be 2.7 nM. For the same molecule, the “average IC50, inhibition of IL-8 mediated neutrophil chemotaxis” value with rabbit IL-8 came to 5 nM; with human monomeric IL-8 it was 1 nM. In addition, in assay [7], the Kd was about 0.114 nM. Moreover, the IC50 is 0.802 nM in assay [8]; 0.264 nM and 0.468 nM in assay [10]; 0.294 nM in assay [11]. Besides, the “IC50 (read off the curve)” value in assay [9] was in the range of 1 to 2 nM.

B5: humanized 6G425 F(ab)-6 (Fab, V domains shown)
VH: B2 VH with Q6E
VL: B2 VL
notes: also called version 8
For B5, the IC50 in [12] was 34.6 nM.

B6: full length 6G4V11N35E IgG1 (antibody, V domains shown, not shown: a dimerising Fc or GST)
VH: B2 VH
VL: B2 VL with N35E
notes: made in CHO cells
With B6, in assay [6], the “IC50, inhibition of IL-8 mediated human neutrophil chemotaxis” value was determined as 6 nM. Besides, the Kd in assay [13] was about 0.049 nM. In addition, the IC50 in assay [2] was about 0.5 nM; in [14], 0.468 nM.

B7: anti-IL-8 monoclonal antibody 5.12.14 (antibody, mouse IgG2a, V domains shown)
VH: EVQLVESGGGLVPPGGSLKLSCAASGFIFSSYGMSWVRQTPGKSLELVATINNNGDSTYYPDSVKGRFTISRDNAKNTLYLQMSSLKSEDTAMFYCARALISSATWFGYWGQGTLVTVSA
VL: DIVMTQSQKFMSTSVGDRVSVTCKASQNVGTNVAWYQQKPGQSPKALIYSSSYRYSGVPDRFTGSGSGTDFTLTISHVQSEDLADYFCQQYNIYPLTFGPGTKLELK
notes: murine IgG2a from hybridoma ATCC HB 11553
As to B7, the Kd in [15] worked out at 0.3 nM.
